Residue numbers refer to the chain shown, from its start. Names and notes keep the numbering of the source.
T1: fH6-7 (factor H CCP domains 6-7) (UniProt P08603 321-443)
T1 construct: domain: fH6-7; Analyte in SPR, 0.5 nM-32 nM
T1 sequence: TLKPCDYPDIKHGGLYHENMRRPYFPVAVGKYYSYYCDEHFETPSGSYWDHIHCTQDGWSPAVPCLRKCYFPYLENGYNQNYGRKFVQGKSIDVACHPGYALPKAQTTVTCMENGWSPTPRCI

B1: Ghfp^M4 (R288H) (other)
chain: DKGLKSLTLEASIPQNGTLTLSAQGAEKTFKAGGKDNSLNTGKLKNDKISRFDFVQKIEVDGQTITLASGEFQIYKQDHSAVVALRIEKINNPDKIDSLINQRSFLVSDLGGEHTAFNQLPDGKAEYHGKAFSSDDADGKLTYTIDFAAKQGHGKIEHLKTPEQNVELASAELKADEKSHAVILGDTRYGGEEKGTYHLALFGDRAQEIAGSATVKIGEKVHEIGIADKQ
notes: Text prints R288H (numbering according to fHbp V1.1 structure)
B2: Ghfp^M4-5 (R288H/D318G) (other)
chain: B1 chain with D228G
notes: Text prints R288H/D318G (fHbp V1.1 structure numbering)
B3: Ghfp^M5 (D318G) (other)
chain: B1 chain with H198R, D228G
notes: Text prints D318G (fHbp V1.1 structure numbering)

How the values were obtained:
[1] = target: T1, fH6-7 (factor H CCP domains 6-7); assay: SPR, Biacore 3000, protein on CM5 chip, fH6-7 as analyte
[2] = target: T1, fH6-7 (factor H CCP domains 6-7); assay: SPR, Biacore 3000, protein on CM5 chip
[3] = target: T2, factor H (fH), full length (human, UniProt P08603 19-1231); assay: ELISA, coated protein, purified full length fH
T2 construct: mature; Far western used normal human serum diluted 1:100 as the source of fH; also called full length fH; purified full length fH
T2 sequence (P08603 19-1231): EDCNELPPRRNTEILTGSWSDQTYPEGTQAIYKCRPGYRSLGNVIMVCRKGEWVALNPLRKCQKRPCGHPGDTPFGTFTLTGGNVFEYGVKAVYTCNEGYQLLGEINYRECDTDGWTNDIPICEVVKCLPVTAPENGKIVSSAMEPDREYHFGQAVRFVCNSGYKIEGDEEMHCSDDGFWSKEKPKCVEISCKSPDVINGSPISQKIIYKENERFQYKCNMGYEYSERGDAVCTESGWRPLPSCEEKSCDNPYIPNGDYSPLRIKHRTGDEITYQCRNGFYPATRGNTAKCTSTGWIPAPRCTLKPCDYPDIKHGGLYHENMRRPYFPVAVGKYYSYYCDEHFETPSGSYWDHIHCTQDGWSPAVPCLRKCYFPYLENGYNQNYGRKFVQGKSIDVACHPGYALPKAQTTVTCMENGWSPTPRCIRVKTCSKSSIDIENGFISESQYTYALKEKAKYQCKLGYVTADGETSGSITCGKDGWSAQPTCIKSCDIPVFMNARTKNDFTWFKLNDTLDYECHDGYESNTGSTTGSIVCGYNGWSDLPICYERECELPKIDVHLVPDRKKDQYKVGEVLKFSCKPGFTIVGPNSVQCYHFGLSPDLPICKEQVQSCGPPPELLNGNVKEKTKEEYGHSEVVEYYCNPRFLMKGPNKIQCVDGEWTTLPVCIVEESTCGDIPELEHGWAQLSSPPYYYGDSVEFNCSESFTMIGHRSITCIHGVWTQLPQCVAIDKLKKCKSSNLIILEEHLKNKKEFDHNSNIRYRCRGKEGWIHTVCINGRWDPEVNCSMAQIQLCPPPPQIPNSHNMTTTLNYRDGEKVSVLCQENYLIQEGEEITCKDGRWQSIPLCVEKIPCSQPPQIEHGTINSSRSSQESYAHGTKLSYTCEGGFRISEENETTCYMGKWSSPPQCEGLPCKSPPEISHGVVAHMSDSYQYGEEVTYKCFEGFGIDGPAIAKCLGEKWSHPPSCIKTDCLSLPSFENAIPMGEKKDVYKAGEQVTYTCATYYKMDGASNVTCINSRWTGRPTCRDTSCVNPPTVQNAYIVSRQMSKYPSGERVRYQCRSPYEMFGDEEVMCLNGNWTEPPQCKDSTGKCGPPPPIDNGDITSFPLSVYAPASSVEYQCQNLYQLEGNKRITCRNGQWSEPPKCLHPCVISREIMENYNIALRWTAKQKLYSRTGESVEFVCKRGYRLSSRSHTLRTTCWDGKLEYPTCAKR

Row | Binder | Kd [1] | binding result [2] | binding result [3]
1 | B1 | 16 nM | – | –
2 | B2 | 2 nM | – | –
3 | B3 | – | no binding (tested: fH6-7 0.5 nM-32 nM) | no binding
